Data from patent US20110287023A1 (AstraZeneca / MedImmune, published 2011).

T1: HMG2 coated on ELISA plates (Bos taurus (Bovine), UniProt P40673 2-209)
T1 construct: also called HMGB2; HMBG2
T1 sequence: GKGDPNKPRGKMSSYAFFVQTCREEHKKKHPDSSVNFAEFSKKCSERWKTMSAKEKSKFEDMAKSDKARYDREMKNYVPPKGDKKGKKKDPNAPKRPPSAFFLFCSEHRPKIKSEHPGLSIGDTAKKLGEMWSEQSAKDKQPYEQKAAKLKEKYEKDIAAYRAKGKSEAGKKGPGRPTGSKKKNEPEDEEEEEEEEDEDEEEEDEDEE

T2: HMG1 B Box peptide amino acids 91-169
T2 construct: also called HMG1 peptide 91-169
T2 peptide: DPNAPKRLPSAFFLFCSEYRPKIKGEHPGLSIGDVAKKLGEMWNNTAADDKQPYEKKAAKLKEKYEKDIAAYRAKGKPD

T3: actively secreted HMGB1 of LPS treated HUVEC cells (UniProt P09429 1-215, limits assumed)
T3 construct: whole, on cells; immunostaining
T3 sequence (looked up): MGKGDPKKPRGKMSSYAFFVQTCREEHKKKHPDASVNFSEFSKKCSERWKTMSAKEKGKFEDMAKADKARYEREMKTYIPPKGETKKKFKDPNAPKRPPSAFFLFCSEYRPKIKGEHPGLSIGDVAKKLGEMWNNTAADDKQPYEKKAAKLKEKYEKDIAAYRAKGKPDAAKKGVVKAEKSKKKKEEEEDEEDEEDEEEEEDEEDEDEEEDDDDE

T4: activated HMG1 from LPS stimulated THP-1 cells (human, UniProt P09429 1-215)
T4 sequence (looked up): T3 sequence (looked up)

B1: human anti-HMG1 antibody S6 (antibody, V domains shown)
VH: EVQLLESGGGLVQPGGSLRLSCAASGFTFSWYDMSWVRQAPGKGLEWVSRISPSGGYTMYADSVKGRFTISRDNSKNTLYLQMNSLRAEDTAVYYCARLEVGATSGGTAFDIWGQGTMVTVSS
VL: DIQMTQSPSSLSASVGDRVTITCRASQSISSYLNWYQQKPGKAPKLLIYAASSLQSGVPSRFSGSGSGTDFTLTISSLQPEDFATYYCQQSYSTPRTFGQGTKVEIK
notes: full length IgG1 made from a human Fab phage clone; two paragraphs print 'S4' for the PTA-6143 deposit; also called ATCC PTA-6143
B2: human anti-HMG1 antibody E11 (antibody, IgG1, V domains shown)
VH: EVQLLESGGGLVQPGGSLRLSCAASGFTFSRYQMNWVRQAPGKGLEWVSSISPSGGHTHYADSVKGRFTISRDNSKNTLYLQMNSLRAEDTAVYYCAKDGRQGKISTVDHWGQGTLVTVSS
VL: DIQMTQSPGTLSLSPGERATLSCRASQSVRSNFLAWYQQKPGQAPRLLIYGASRRASGIPDRFSGSGFGADFTLSISRLEPEDFAVYYCQQYGSSPNTFGQGSRVEIK
notes: full length IgG1 made from a human Fab phage clone
B3: human anti-HMG1 antibody S16 (antibody, IgG1, V domains shown)
VH: EVQLLESGGGLVQPGGSLRLSCAASGFTFSWYSMLWVRQAPGKGLEWVSYISPSGGFTNYADSVKGRFTISRDNSKNTLYLQMNSLRAEDTAVYYCARWDYNSGWYYDHWGQGTLVTVSS
VL: DIQMTQSPDTLSLSPGERATLSCRASQSVNSRNLAWYQQKPGQAPRLLIYGASTRATGIPDRFSGSVSGTEFTLTISSLQPDDFATYYCQQYNSYFTFGQGTKLEIK
notes: full length IgG1 made from a human Fab phage clone; also called ATCC PTA-6259
B4: human anti-HMG1 antibody G4 (antibody, IgG1, V domains shown)
VH: EVQLLESGGGLVQPGGSLRLSCAASGFTFSWYDMTWVRQAPGKGLEWVSSISPSGGYTKYADSVKGRFTISRDNSKNTLYLQMNSLRAEDTAVYYCTTEFYDYLDVWGKGTTVTVSS
VL: DIQMTQSPGTLSLSPGEGATLSCRASQSVSSTYLAWYQQKPGQAPRLLIYEASKRATGTPARFSGSGSGTDFTLSISSLEPEDFAVYYCQHRHNWPPQWTFGQGTKVEVK
notes: full length IgG1 made from a human Fab phage clone; also called ATCC PTA-6258

Key:
[1] = target: T1, HMG2 coated on ELISA plates; assay: direct ELISA, HMGB2 coated at 5 ug/mL, OD 490
Method: (§1) Binding to HMG1 vs. HMG2: Ultra high-binding ELISA plates (ThermoLab systems, #3855) were coated with either 5 ug/mL of Calf thymus HMGB1 or HMBG2 diluted in 10 mM Phosphate buffered saline (PBS), pH 7.2 and incubate overnight at 4 degrees. The plates were washed twice with Ca and Mg free PBS and 100 microliters of anti-HMGB1 antibody diluted in 10 mM PBS, pH 7.2+1% bovine serum albumin (BSA) to a final concentration of 10 ug/mL was added to each well and the plates were incubated 1 hour at room temperature. The wells were washed three times with 100 μl of PBS, pH 7.2. HRP labeled goat-anti-human IgG Kappa-chain (KPL, #14-10-10) and goat-anti-human IgG Lambda-chain (KPL, #14-10-11) were diluted in 10 mM PBS+1% BSA 1:1000 and 100 μl were added to each well and incubated for 1 hour at room temperature. The wells were then washed three times with 100 μl of PBS, pH 7.2. OPD substrate (Pierce chemical company, #34006) was prepared following the manufacturers instructions and 100 μl of prepared substrate was added to each well and the plates incubated at room temperature in the dark for 20-30 minutes. The reaction was stopped with the addition of 100 μl of 2M H₂SO₄, and the plates read on a plate reader at a wavelength of 490 nm.

[2] = target: T1, HMG2 coated on ELISA plates; assay: direct ELISA, HMGB2 coated at 5 ug/mL, antibody at 10 ug/mL, anti-human kappa/lambda-HRP, OD 490
Method: as §1

[3] = target: T2, HMG1 B Box peptide amino acids 91-169; assay: ELISA, HMG1 B Box peptide 91-169 coated at 10 ug/ml, antibody titrated, anti-human IgG-HRP, OD 450
Method: The plate was then blocked with 4% milk powder dissolved in PBS at 37° C. for 1 hour. The blocking solution was removed and replaced with human anti-HMG1 antibodies at various concentrations (see FIGS. 5A-B). […] HRP activity was detected with Sureblue HRP substrate (KPL). Plates were read at 450 nm using a Kinetic Microplate Reader (Molecular Devices). […] After washing and blocking with 1% BSA in PBS, the biotinylated peptides were individually added into the avidin coated wells and incubated for 30 min at room temperature. The serial diluted antibody G4, S16 and S6 at the initial concentration at 10 μg/ml were then transferred into the wells followed by adding mouse anti human IgG-HRP conjugate (Pierce). Detection was accomplished by adding 50 μl of tetramethylbenzidine (TMB) substrate (KPL) and the absorbance was read at 450 nm.

[4] = target: T5, recombinant HMG1 produced in E. coli as a calmodulin binding protein (CBP) fusion (human); assay: sandwich ELISA: antibody titrated and captured on anti-human IgG Fc, soluble recombinant HMG1 at 2 ug/ml, mouse anti-HMGB1 and anti-mouse IgG-HRP, OD 450
T5 construct: also called rHMG1; rHMGB1
Method: (§2) Sandwich ELISA (soluble HMG1): Immunoplates (EIA/RIA plate, High binding, Costar) were coated with anti human IgG Fc at 10 μg/ml in PBS (pH 7.2) and incubated at 4° C. overnight. The coating reagent was removed and the plates were rinsed briefly with PBS. The plates were then blocked with 4% milk for 1 hour at 37° C. and rinsed with PBS. The anti-HMG1 antibodies were diluted in 4% milk. For serial dilutions, the antibodies were used at a starting concentration of 20 μg/ml. The diluted anti-HMG1 antibodies were then added into plate and incubated for 1 hr at 37° C. The plate was then washed 10 times with PBST (PBS/0.1% tween 20) and incubate with antigen (HMGB1, 2 μg/ml; or 0.7 μg/ml for native HMGB1) in 4% milk and incubated at 37° C. for 1 h. The plate was then wash 10 times and incubated with mouse anti-HMGB1, 1 μg/ml in 4% milk at 37° C. for 1 h. The plate was washed 10 times and incubated with anti-mouse IgG-HRP at 1:1000 at 37° C. for 1 h. The plate was then washed and developed. HRP activity was detected with Sureblue HRP substrate (KPL). Plates were read at 450 nm using a Kinetic Microplate Reader (Molecular Devices).

[5] = target: T3, actively secreted HMGB1 of LPS treated …; assay: immunofluorescence on fixed LPS treated HUVEC, anti-human IgG-FITC; paragraph 81 gives the lower panels as G4
Method: Immunofluorescence: Intracytoplasmic (ic) HMGB1 was quantitated by direct immunofluorescence. HUVEC were harvested by trypsin-EDTA treatment and seeded on a glass coverslip. Once the cells are settled, they were stimulated with 0.2 μg/ml of LPS (Sigma) for 4 hours. The cells were fixed in 2% paraformaldehyde for 15 min and then permeabilized in 0.2% Triton X-100 for 2 min. Fixed and permeabilized cells were incubated with anti-HMGB1 antibodies at 1 μg/ml for 1 hour at room temperature. Cells were then washed to remove excess or nonspecifically bound primary antibody followed by incubation with anti human IgG conjugated with fluorescence (Pierce). The sections were mounted with fluoromount (Southern Associates, Birmingham, Ala.), and the images were processed with a Nikon microscope (Japan) and a SPOT imaging system (Diagnostic Instrument).

[6] = target: T4, activated HMG1 from LPS stimulated …; assay: sandwich ELISA: antibody titrated and captured on anti-human IgG Fc, activated HMG1 in solution, mouse anti-HMGB1 detection, OD 450
Method: as §2

Row | Binder | binding result [1] | binding result [2] | binding result [3] | EC50 (read off the curve) [4] [µg/mL] | binding result [5] | binding result [6]
1 | B1 | no binding (tested: 10 ug/mL (single concentration)) |  |  |  |  | 
2 | B2 |  | binds |  |  |  | 
3 | B3 |  | binds | binds | ~0.08 |  | 
4 | B4 | no binding (tested: 10 ug/mL (single concentration)) |  | binds |  | binds | binds
